The data set concerns the target thrombin (human alpha-thrombin) (UniProt P00734+P00734). The data set can be described thus: inhibition. The conditions noted are these: 0.1 nM thrombin, 2 uM fibrinogen, absorbance 350 nm.
The mark [1] stands for this setting: circular (5' and 3' ends joined), N = random nucleotide.

“NNNNNNNCTAGTCATAGGGGGCGCGAACATACGCGGTTGGTGTGGTTGGCTGACAATACTCGTTTTTGGTGTCTCGGAT [M1]”: the 50% inhibitory concentration (IC50) under setting [1] amounted to 370 pM.
Same read-out and setting: next, “ATCTCGANNNNNNNTAGGGGGCGCGAACATACGCGGTTGGTGTGGTTGGCTGACAATACTCGTTTTTGGTGTCTCGGAT [M2]”: 360 pM.
“ATCTCGACTAGTCANNNNNNNNNNNNNNNNNNNNGGTTGGTGTGGTTGGNNNNNNNNNNNNNNNNNNNNTGTCTCGGAT [Lib (random circular nucleic acid)]” gave an IC50 (circular, random pool carrying fixed GGTTGGTGTGGTTGG core) of 72100 pM.
Sequence “ATCTCGACTAGTCATAGGGGGCGCGAACATACGCGGTTGGTGTGGTTGGCTGACAANNNNNNNTTTTGGTGTCTCGGAT [M3]” came in with an IC50 under setting [1] of 180 pM.
For “ATCTCGACTAGTCATAGGGGGCGCGAACATACGCGGTTGGTGTGGTTGGCTGACAATACTCGTNNNNNNNGTCTCGGAT [M4]”, the IC50 under setting [1] came out at 100 pM.
Turning to “ATCTCGACTAGTCATAGGGGGCGCGAACATACGCGGTTGGTGTGGTTGGCTGACAATACTCGTTTTTGGTNNNNNNNNN [M5]”, under setting [1], the IC50 was determined as 110 pM.

In general, IC50 refers to the concentration that gives 50% inhibition. A low value points to greater potency.

The record behind these values is patent US20230056099.
